{"source": "paper PMC6930178", "target": "HIV-1 clade C 96ZM651 gp140 Env trimer (HIV-1 clade C isolate 96ZM651)", "assay": "native gel or EMSA", "data": [{"substance": "HIV-1 clade C 96ZM651 gp140 Env trimer (domain or fragment)", "values": [{"measurement": "stoichiometry N", "value": 3}]}]}
